± gives the uncertainty stated by the source.

B1: SAM and SH3 domain-containing protein 1, residues 630 to 700; numbered along this chain, O94885 (parent)
chain: GRPPQPKSVEDLLDRINLKEHMPTFLFNGYEDLDTFKLLEEEDLDELNIRDPEHRAVLLTAVELLQEYDSN

The variants in the series derive from B1. In words: abundance fitness (aPCA) (normalised: wild type 0, dead -1); higher = more abundant; growth selection in yeast, the domain comes from the species named. Particulars: Homo sapiens.
Consider F27H, for which the abundance fitness is 0.246 ± 0.042.
Consider F27G, for which the abundance fitness was determined as 0.166 ± 0.039.
For F27I, the abundance fitness is 0.157 ± 0.045.
With F27S the figure was 0.406 ± 0.032; with F27T, 0.341 ± 0.036.
Consider F27V, for which the abundance fitness was 0.235 ± 0.037.
For F27E the value was 0.491 ± 0.047; for L18E, -0.797 ± 0.092; for L18W, -0.853 ± 0.089.
L18K: the abundance fitness is -0.77 ± 0.077.
On to D11A, for which the abundance fitness was -0.607 ± 0.061.
Turning to D11H, the abundance fitness was -0.78 ± 0.067.
On to D11F, for which the abundance fitness was -0.925 ± 0.08.
Regarding D11M, the abundance fitness was -0.97 ± 0.088.
D11N: the abundance fitness was -0.605 ± 0.067.
As to D11E, the abundance fitness was 0.148 ± 0.049.
As to D11Q, the abundance fitness was -0.319 ± 0.052.
With D14I, the abundance fitness is -0.293 ± 0.054.
Regarding D14N, the abundance fitness is -0.131 ± 0.048.
With D14Q the figure was -0.269 ± 0.07; with L38T, 0.23 ± 0.041.
For L38S, the abundance fitness is -0.005 ± 0.036.
As to L38M, the abundance fitness was -0.011 ± 0.05.
Regarding L38D, the abundance fitness was -0.175 ± 0.053.
With L38E, the abundance fitness is 0.03 ± 0.051.
As to S8Q, the abundance fitness is -0.55 ± 0.1.
S8Y: the abundance fitness is -0.899 ± 0.085.
As for S8W, the abundance fitness is -1.35 ± 0.24.
Take S8G: the abundance fitness was -0.536 ± 0.076.
With S8D, the abundance fitness is -0.316 ± 0.076.
E63W: the abundance fitness is -0.751 ± 0.081.
E63D: the abundance fitness was -0.058 ± 0.044.
In the case of E63A, the abundance fitness is 0.034 ± 0.035.
As to D43F, the abundance fitness is -1.05 ± 0.085.
For D43G the value was -0.444 ± 0.053.
In the case of L47I, the abundance fitness was -0.671 ± 0.058.
For L47W the value was -0.959 ± 0.092.
As for L47V, the abundance fitness was -0.781 ± 0.051.
Take L47M: the abundance fitness was found to be 0.017 ± 0.048.
For L47A, the abundance fitness was -0.698 ± 0.053.
For the variant L47K, the abundance fitness is -0.781 ± 0.1.
For L47Y the value was -0.783 ± 0.065; for K19C, -0.419 ± 0.056.
For the variant K19V, the abundance fitness was -0.293 ± 0.042.
For K19P the value was -0.279 ± 0.043; for K19G, -0.236 ± 0.051; for K19N, -0.211 ± 0.047.
Regarding R55P, the abundance fitness was -0.895 ± 0.087.
Take R55E: the abundance fitness was -0.522 ± 0.081.
R55A: the abundance fitness was -0.9 ± 0.082.
For Q66F, the abundance fitness is -0.694 ± 0.061.
For Q66R the value was 0.33 ± 0.034; for Q66L, -0.351 ± 0.038.
In the case of Q66N, the abundance fitness came out at 0.059 ± 0.038.
On to Q66H, for which the abundance fitness was -0.035 ± 0.043.
As to R2Q, the abundance fitness was -0.412 ± 0.076.
As for R2M, the abundance fitness was -0.442 ± 0.06.
With R2W, the abundance fitness was -0.643 ± 0.11.
With R2E the figure was -0.634 ± 0.1.
For R2A the value was -0.489 ± 0.072.
For the variant D51E, the abundance fitness is -0.369 ± 0.063.
With D51L, the abundance fitness is -0.632 ± 0.042.
Regarding D51V, the abundance fitness was -0.553 ± 0.051.
For N28K the value was -0.426 ± 0.064.
With N28G the figure was -0.157 ± 0.043; with N28V, -0.939 ± 0.076.
Take N28C: the abundance fitness is -0.582 ± 0.065.
With N28E the figure was -0.647 ± 0.098; with N28I, -1.08 ± 0.11; with R15N, -0.075 ± 0.046.
In the case of R15I, the abundance fitness is -0.23 ± 0.051.
For R15K, the abundance fitness was -0.036 ± 0.049.
With R15H the figure was -0.342 ± 0.054.
For R15Y, the abundance fitness was -0.3 ± 0.053.
For the variant R15T, the abundance fitness is -0.164 ± 0.04.
With R15G the figure was -0.342 ± 0.049; with L39Y, -0.929 ± 0.078.
Regarding L39D, the abundance fitness is -0.799 ± 0.081.
With L39I, the abundance fitness was 0.058 ± 0.041.
For K7F, the abundance fitness was -0.5 ± 0.053.
Consider K7S, for which the abundance fitness is -0.097 ± 0.038.
K7W: the abundance fitness is -0.873 ± 0.12.
K7M: the abundance fitness is -0.309 ± 0.066.
For K7T the value was 0.095 ± 0.04.
On to G1V, for which the abundance fitness is -0.049 ± 0.051.
As for G1I, the abundance fitness amounted to 0.047 ± 0.082.
As to V57E, the abundance fitness is 0.196 ± 0.049.
For V57L, the abundance fitness is 0.199 ± 0.034.
With V57D the figure was 0.089 ± 0.052; with L33T, -0.828 ± 0.08.
As to L33C, the abundance fitness is -0.881 ± 0.11.
Turning to L33W, the abundance fitness is -1.19 ± 0.17.
For L33M, the abundance fitness was -0.64 ± 0.084.
P3C: the abundance fitness was -0.073 ± 0.052.
On to P3K, for which the abundance fitness is -0.279 ± 0.055.
Take Q5M: the abundance fitness was -0.033 ± 0.048.
As to Q5E, the abundance fitness was -0.481 ± 0.098.
Regarding Q5A, the abundance fitness is -0.291 ± 0.053.
Consider T60G, for which the abundance fitness is 0.071 ± 0.042.
For the variant T60S, the abundance fitness worked out at 0.227 ± 0.032.
Consider T60W, for which the abundance fitness is -0.378 ± 0.056.
For the variant T60P, the abundance fitness is -0.63 ± 0.064.
For the variant T60D, the abundance fitness is 0.245 ± 0.05.
T60F: the abundance fitness is -0.613 ± 0.06.
Turning to T60I, the abundance fitness is -0.927 ± 0.082.
Take L59A: the abundance fitness is -0.569 ± 0.053.
On to L59D, for which the abundance fitness is -0.577 ± 0.067.
Take R50I: the abundance fitness is -0.11 ± 0.052.
For R50G the value was -0.371 ± 0.05.
Turning to R50S, the abundance fitness is -0.06 ± 0.036.
In the case of R50E, the abundance fitness was -0.146 ± 0.057.
Regarding L65P, the abundance fitness is -0.88 ± 0.08.
Consider L65W, for which the abundance fitness was -0.959 ± 0.097.
For L65Y, the abundance fitness was -0.961 ± 0.093.
With L65I the figure was -0.433 ± 0.052.
Take E53Y: the abundance fitness was -0.557 ± 0.063.
As for E53W, the abundance fitness was -0.575 ± 0.075.
In the case of E53L, the abundance fitness was -0.486 ± 0.045.
In the case of E53N, the abundance fitness was -0.146 ± 0.05.
For E53H the value was -0.09 ± 0.049; for E53I, -0.542 ± 0.063; for V62K, 0.005 ± 0.059.
Take V62N: the abundance fitness is -0.578 ± 0.09.
E41R: the abundance fitness is -0.499 ± 0.054.
For the variant E41W, the abundance fitness is -0.567 ± 0.091.
As to E41A, the abundance fitness is -0.075 ± 0.048.
For the variant E41C, the abundance fitness is -0.483 ± 0.067.
Turning to E20H, the abundance fitness was -0.484 ± 0.074.
With E20W, the abundance fitness is -0.879 ± 0.13.
Turning to E20Y, the abundance fitness was -0.84 ± 0.1.
Regarding E20A, the abundance fitness is -0.699 ± 0.084.
Regarding F36C, the abundance fitness was -0.849 ± 0.087.
As to F36V, the abundance fitness was -0.495 ± 0.051.
Regarding D45H, the abundance fitness is -0.538 ± 0.053.
On to D45V, for which the abundance fitness is -0.151 ± 0.041.
As for D45T, the abundance fitness was -0.38 ± 0.042.
Turning to D45Q, the abundance fitness is -0.557 ± 0.059.
For D45K the value was -0.135 ± 0.048; for D45A, -0.622 ± 0.057; for D45L, -0.113 ± 0.033.
As for I49Q, the abundance fitness is -0.92 ± 0.083.
In the case of I49V, the abundance fitness was -0.398 ± 0.042.
I49R: the abundance fitness was -0.831 ± 0.053.
For I49P the value was -1 ± 0.08.
For the variant E40C, the abundance fitness stood at 0.186 ± 0.042.
For E40W the value was -0.933 ± 0.098; for E40I, -0.431 ± 0.055; for E40S, 0.252 ± 0.032.
Take E40F: the abundance fitness was -1.01 ± 0.089.
With P23L, the abundance fitness was -0.056 ± 0.037.
With P23W, the abundance fitness is -0.103 ± 0.061.
Regarding P23N, the abundance fitness worked out at 0.102 ± 0.043.
In the case of P23K, the abundance fitness came out at 0.043 ± 0.053.
On to L26A, for which the abundance fitness was -0.117 ± 0.04.
In the case of L26T, the abundance fitness was -0.225 ± 0.043.
Consider L26G, for which the abundance fitness was -0.697 ± 0.06.
Take N48M: the abundance fitness was -0.516 ± 0.14.
As to N48V, the abundance fitness was -1.21 ± 0.2.
For the variant N48F, the abundance fitness is -0.983 ± 0.19.
Consider G29A, for which the abundance fitness is -0.806 ± 0.062.
Regarding G29V, the abundance fitness was -1.17 ± 0.089.
G29K: the abundance fitness is -0.925 ± 0.11.
Turning to L58C, the abundance fitness was -0.82 ± 0.1.
On to L58G, for which the abundance fitness is -0.667 ± 0.068.
As to L58V, the abundance fitness was -0.53 ± 0.06.
L58M: the abundance fitness is -0.717 ± 0.078.
Consider L58S, for which the abundance fitness was -0.516 ± 0.054.

The values are drawn from the Human Domainome abundance scans (Beltran et al. 2025).
